Reference: PMC5738261 (Journal of molecular biology, 2017)
Like-named read-outs stand apart in the source and are kept apart here.

What was measured:
dynamic light scattering [1] = target: the molecule itself; experiment: dynamic light scattering
dynamic light scattering [2] = target: the molecule itself; experiment: dynamic light scattering; remark: listed apart in the source
[3] = target: T1, A3F-CD2 E251A K352A/K355A/K358A (human, UniProt Q8IUX4 190-373, E251A;K352A;K355A;K358A); experiment: EMSA
[4] = target: T1, A3F-CD2 E251A K352A/K355A/K358A; experiment: EMSA; remark: listed apart in the source
A3F-CD2 WT = A3F-CD2 WT (human, UniProt Q8IUX4 190-373); experiment: X-ray crystallography

B1: wild-type hA3F-CD2 (APOBEC3F C-terminal catalytic domain, residues 190-373) (domain or fragment, human, UniProt Q8IUX4 190-373, looked up)
chain: NPMEAMYPHIFYFHFKNLRKAYGRNESWLCFTMEVVKHHSPVSWKRGVFRNQVDPETHCHAERCFLSWFCDDILSPNTNYEVTWYTSWSPCPECAGEVAEFLARHSNVNLTIFTARLYYFWDTDYQEGLRSLSQEGASVEIMGYKDFKYCWENFVYNDDEPFKPWKGLKYNFLFLDSKLQEILE
stoichiometry N (dynamic light scattering [1]): 2 | stoichiometry N (dynamic light scattering [2]): 4

B2: 10 nt poly-dT (FAM) (ssDNA)
DNA: TTTTTTTTTT
binding result [3]: no binding

B3: 50 nt RNA (ssRNA)
RNA: AUUAUUAUUAUUUAUCCCUAUUUAUAUUUAUUGUUAUUGUUAUUGUUAUA
binding result [4]: no binding

B4: 10 nt poly-dT (crystal, DLS) (ssDNA)
DNA: TTTTTTTTTT
binding result (A3F-CD2 WT): binds
